Results reported in publication PMC5387307, “Diversification of the kinetic properties of yeast NADP‐glutamate‐dehydrogenase isozymes proceeds independently of their evolutionary origin” (MicrobiologyOpen, 2016).
Where two headings read alike, the source gives them in different places.

Legend:
[1] = system: T1, LkGdh1; test: NADPH absorbance at […] nm, reductive amination; format: biochemical, Lachancea kluyveri; details: 100 mmol/L Tris pH 7.5, 30°C
T1 construct: gene GDH1; full-length ORF in pET-28a(+), His-tagged, expressed in E. coli BL21, Ni-NTA purified; monomer 54 kD apparent; glutamate IC50: native enzyme in WT extract

[2] = substrate: N; test: purified protein; details: 8 mmol/L α-KG, 250 μmol/L NADPH, 100 mmol/L Tris pH 7.5, 30°C
[3] = substrate: O=C(O)CCC(=O)C(=O)O; test: purified protein; format: biochemical, Saccharomyces cerevisiae; details: 250 μmol/L NADPH, 100 mmol/L ammonium chloride, 100 mmol/L Tris pH 7.5, 30°C
[4] = substrate: NC(=O)C1=CN([C@@H]2O[C@H](COP(=O)(O)OP(=O)(O)OC[C@H]3O[C@@H](n4cnc5c(N)ncnc54)[C@H](OP(=O)(O)O)[C@@H]3O)[C@@H](O)[C@H]2O)C=CC1; test: purified protein; format: biochemical, Saccharomyces cerevisiae; details: 8 mmol/L α-KG, 100 mmol/L ammonium chloride, 100 mmol/L Tris pH 7.5, 30°C

| Molecule | Km [2] [µM] | kcat [2] [s⁻¹] | Km [3] [µM] | kcat [3] [s⁻¹] | Km [4] [µM] | kcat [4] [s⁻¹] | further results |
| --- | --- | --- | --- | --- | --- | --- | --- |
| NC(=O)C1=CN([C@@H]2O[C@H](COP(=O)(O)OP(=O)(O)OC[C@H]3O[C@@H](n4cnc5c(N)ncnc54)[C@H](OP(=O)(O)O)[C@@H]3O)[C@@H](O)[C@H]2O)C=CC1 [NADPH] |  |  |  |  |  |  | Km ([1]; 8 mmol/L α-KG, 100 mmol/L ammonium chloride, read-out: pH 7.5 / K m-NADPH): 46 µM |
| O=C(O)CCC(=O)C(=O)O [α-KG] |  |  |  |  |  |  | Km ([1]; 250 μmol/L NADPH, 100 mmol/L ammonium chloride, read-out: pH 7.5 / K m-α-KG): 460 µM |
| N [NH4+] |  |  |  |  |  |  | Km ([1]; 8 mmol/L α-KG, 250 μmol/L NADPH, read-out: pH 7.5 / K m-NH4+): 7400 µM |
| ScGdh3 (Saccharomyces cerevisiae S288C) (protein, full-length ORF in pET-28a(+), His-tagged, expressed in E. coli BL21, Ni-NTA purified; monomer 55 kD apparent; glutamate IC50: native enzyme in Scgdh1 deletion strain extract) MTSEPEFQQAYDEIVSSVEDSKIFEKFPQYKKVLPIVSVPERIIQFRVTWENDNGEQEVAQGYRVQFNSAKGPYKGGLRFHPSVNLSILKFLGFEQIFKNALTGLDMGGGKGGLCVDLKGKSDNEIRRICYAFMRELSRHIGKDTDVPAGDIGVGGREIGYLFGAYRSYKNSWEGVLTGKGLNWGGSLIRPEATGFGLVYYTQAMIDYATNGKESFEGKRVTISGSGNVAQYAALKVIELGGIVVSLSDSKGCIISETGITSEQIHDIASAKIRFKSLEEIVDEYSTFSESKMKYVAGARPWTHVSNVDIALPCATQNEVSGDEAKALVASGVKFVAEGANMGSTPEAISVFETARSTATNAKDAVWFGPPKAANLGGVAVSGLEMAQNSQKVTWTAERVDQELKKIMINCFNDCIQAAQEYSTEKNTNTLPSLVKGANIASFVMVADAMLDQGDVF | 6900 | 14 | 400 | 14 | 42 | 14 |  |
| ScGdh1 (Saccharomyces cerevisiae S288C) (protein, full-length ORF in pET-28a(+), His-tagged, expressed in E. coli BL21, Ni-NTA purified; monomer 53 kD apparent) SEPEFQQAYEEVVSSLEDSTLFEQHPEYRKVLPIVSVPERIIQFRVTWENDKGEQEVAQGYRVQYNSAKGPYKGGLRFHPSVNLSILKFLGFEQIFKNSLTGLDMGGGKGGLCVDLKGRSNNEIRRICYAFMRELSRHIGQDTDVPAGDIGVGGREIGYLFGAYRSYKNSWEGVLTGKGLNWGGSLIRPEATGYGLVYYTQAMIDYATNGKESFEGKRVTISGSGNVAQYAALKVIELGGTVVSLSDSKGCIISETGITSEQVADISSAKVNFKSLEQIVNEYSTFSENKVQYIAGARPWTHVQKVDIALPCATQNEVSGEEAKALVAQGVKFIAEGSNMGSTPEAIAVFETARSTATGPSEAVWYGPPKAANLGGVAVSGLEMAQNSQRITWTSERVDQELKRIMINCFNECIDYAKKYTKDGKVLPSLVKGANIASFIKVSDAMFDQGDVF | 8600 | 13 | 370 | 13 | 45 | 13 |  |
